This note sets out measurements from article PMC9052748, “The Di-Iron Protein YtfE Is a Nitric Oxide-Generating Nitrite Reductase Involved in the Management of Nitrosative Stress” (Journal of the American Chemical Society, 2022).

Where a chain is given by its changes, count along the chain named. Numbers in names are those of the source.

One data set concerns the target T1, YtfE (Escherichia coli, UniProt P69506).
T1 construct: C-terminal His tag (pGS2618, pET24a derivative), expressed in E. coli BL21 (DE3)-T1R, purified anaerobically; di-iron holo form, 26,154 Da, monomer
The data set can be described thus: initial rates of DTT-mediated reduction of air-exposed YtfE (A340 nm), binding isotherm. It counts as biochemical. The settings on record: air-exposed (oxidized) YtfE ~90 μM; DTT 0 to 80 mM; reductant; apparent value from rates. The source says: initial rates of DTT-mediated reduction of air-exposed YtfE (A340 nm), binding isotherm on YtfE | fitted using a simple binding isotherm, from which a Kd was obtained

Substrate in the data set “purified protein”: O=NO
The data set can be described thus: purified protein. It counts as biochemical, Escherichia coli. The following applies: di-ferrous YtfE 10 μM, reductant dithionite-reduced methyl viologen 58 μM, pH 7.5, 100 mM Tris, anaerobic.

For the molecule `OC(CS)C(O)CS` (stereo not drawn) [DTT], the Kd on YtfE is 7.3 mM.

B1: YtfE (Escherichia coli K-12) (protein)
chain: MAYRDQPLGELALSIPRASALFRKYDMDYCCGGKQTLARAAARKELDVEVIEAELAKLAEQPIEKDWRSAPLAEIIDHIIVRYHDRHREQLPELILQATKVERVHADKPSVPKGLTKYLTMLHEELSSHMMKEEQILFPMIKQGMGSQAMGPISVMESEHDEAGELLEVIKHTTNNVTPPPEACTTWKAMYNGINELIDDLMDHISLENNVLFPRALAGE
notes: C-terminal His tag (pGS2618, pET24a derivative), expressed in E. coli BL21 (DE3)-T1R, purified anaerobically; di-iron holo form, 26,154 Da, monomer
For orientation: Vmax means the rate approached at saturating substrate. As a reminder, the kcat is the number of substrate molecules converted per active site and unit of time at saturation. As usually defined, the kcat/Km is the turnover number divided by the Michaelis constant. With B1, in “purified protein”, the Km is recorded as 252 (± 32) μM, the Vmax amounted to 1.33 µmol/min/mg, the kcat turned out to be 0.58 ± 0.0265 s⁻¹ and the kcat/Km came to 2300 ± 105 M⁻¹ s⁻¹.

B2: YtfE (Escherichia coli K-12; C30A/C31A) (protein)
chain: B1 chain with C30A, C31A
notes: as for B1
Regarding B2, in “purified protein”, the Km was 288 (± 29) μM, the Vmax came to 1.59 µmol/min/mg, the kcat stood at 0.693 ± 0.0263 s⁻¹ and the kcat/Km turned out to be 2410 ± 91.7 M⁻¹ s⁻¹.
